What was measured:
[1] = system: L. lactis NZ9000ΔldhΔldhB; experiment: Specific pHCA and CA productivity of L. lactis strains expressing TAL/PAL enzymes in CDM; assay type: cell-based, Lactococcus lactis
Text: The synthetic RsXALI (protein GI 129592) and RmXALI (protein GI 126464011) genes, codon optimized for Lactococcus lactis (GeneArt), were cloned into the nisin inducible expression vector pNZ8048 (Kuipers et al., 1998) as follows: RsXALI (SEQ ID NO: 56) and RmXALI (SEQ ID NO: 57) genes and the vector were PCR amplified using the primers listed in Table 7, and were assembled in a single-tube isothermal reaction using the Gibson Assembly Master Mix (New England Biolabs). Reaction products were ethanol-precipitated and suspended in double distilled water before transformation into L. lactis by electroporation as described by Holo and Nes (1995). The synthetic genes encoding SeSam8, R_XAL, HaXAL1 and FjXAL described in a previous example above were amplified by PCR using the primer pairs listed in Table 1, digested with specific restriction enzymes, and cloned in-between the NcoI and XbaI restriction sites of pNZ8048. The plasmids were obtained and maintained in L. lactis NZ9000 (Kuipers et al., 1998) and the gene sequences of the different constructs were verified by sequencing.
To assess pHCA production, TAL-expression vectors were transformed into a strain derived from NZ9000, but with deletion of the genes Idh and dhB (NZ9000ΔldhΔldhB). A control strain was also constructed by transformation of NZ9000ΔldhΔldhB with empty expression vector pNZ8048.
For molecular biology procedures, L. lactis strains were cultivated as batch cultures (flasks) without aeration in M17 medium (Difco™, USA) supplemented with 0.5% glucose (w/v) at 30° C. To assess pHCA production, strains were grown as static cultures in chemically defined medium (CDM; Poolman and Konings, 1988) containing 1% glucose (wt/vol) without pH control (initial pH 6.5 or 7.0) and supplemented with 1.7 or 3.7 mM L-tyrosine. Plasmid selection was achieved by addition of 5 μg mL^−1 chloramphenicol to the growth medium. Growth was monitored by measuring OD600. For heterologous expression of cloned tyrosine ammonia lyases, L. lactis strains were grown in CDM and nisin (1.5 μg L^−1) was added at an OD600 of 0.3-0.4. Samples (1 mL) of cultures were collected at different points during growth; centrifuged (16,100×g, 10 min, 4° C.) and the supernatants stored at −20° C. until analysis by HPLC as described in a previous example above. […] The first six columns are results from media containing 1.7 mM tyrosine. The seventh and ninth columns represent samples from strains grown in media containing 3.7 mM tyrosine, and the eighth and ninth columns are data from media with 68.5 mM 3-(N-morpholino)propanesulfonic acid (MOPS) and initial pH adjusted to 7.0 rather than 6.5.

[2] = substrate: N[C@@H](Cc1ccccc1)C(=O)O; experiment: In vitro kinetics of purified His-tagged FjXAL (tyrosine/phenylalanine ammonia lyase activity, absorbance at 315/295 nm); assay type: biochemical, Flavobacterium johnsoniae; details: other: FjXAL, 30° C, 1.56 μM to 200 μM tyrosine or 193 μM to 25 mM phenylalanine, pH 7.5
Experimental: (§1) The tyrosine ammonia lyase activity may for instance be determined in accordance to the following method: Enzymatic assays are performed in 200 μL volumes in wells in a UV transparent 96-well plate, by following the increase in absorbance at 315 nm (pHCA) using spectrophotometry or HPLC with UV detection. The reaction mixtures contain 2 μg of purified protein and are initiated by adding 1 mM tyrosine or 6 mM after equilibration to 30° C. The enzymatic activity is calculated as U/g, where U is defined as μmol substrate converted per minute. Negative controls contain no purified protein. Kinetic constants Km and vmax are determined from assays containing 1.56 μM to 200 μM tyrosine. See also Kyndt et al. (2002).
(§2) Four of the enzymes were further purified by His-tag purification as follows. A DNA linker (5′ phosphorylated oligonucleotides CBJP559 and CBJP560, Table 5) was inserted in place of the sequence between the NdeI and BgIII site in plasmid pCDFDuet-1. This would result in the addition of the amino acids MAHHHHHHENLYFQ (SEQ ID NO: 11) to the N-terminal end of the polypeptides. The resulting plasmid was amplified with primers CBJP575 and CBJP576 (table 5) and the genes were amplified and combined using the Gibson reaction (New England Biolabs). The PCR amplification used the same reverse primers as in example 1, but the forward primers matching the His-tag site of the linker (Table 5). Plasmids carrying the genes (e.g. FjXAL, FIG. 4) were transformed into electrocompetent E. coli BL21(DE3)pLysS cells (Life Technologies) and selected on LB plates containing 50 ug/mL streptomycin.
(§3) Strains expressing His-tagged versions of the enzymes were grown in LB media overnight at 37° C. and diluted into fresh LB media with 1 mM IPTG and growth was propagated overnight (approximately 18 h) at 30° C. Cells were harvested by centrifugation at 8000 rpm for 8 minutes, and disrupted by shearing into a buffer (50 mM Tris-HCl, 10 mM imidazole, 500 mM NaCl, 10% glycerol, pH 7.5). The homogenate was clarified by centrifugation at 10000 g for 10 min at 4° C., and the supernatant was loaded onto Ni2+-NTA resin column on an Äkta Pure system connected to a F9-C fraction collector (GE). Finally the fractions containing the purified polypeptide was dialyzed overnight against a buffer containing 50 mM Tris-HCl pH 7.5, 150 mM NaCl and 10% glycerol, flash-frozen in liquid nitrogen and stored at −80° C.
(§4) Enzymatic assays were performed in 200 μL volumes in wells in a UV transparent 96-well plate, by following the increase in absorbance at 315 nm (pHCA) or 295 nm (CA). […] The enzymatic activity was calculated as U/g, where U is defined as μmol substrate converted per minute.

[3] = substrate: N[C@@H](Cc1ccc(O)cc1)C(=O)O; experiment: as above; assay type: biochemical, Flavobacterium johnsoniae; details: other: FjXAL, 30° C, 1.56 μM to 200 μM tyrosine or 193 μM to 25 mM phenylalanine, pH 7.5
Experimental: as §1, §2, §3, §4

B1: Flavobacterium johnsoniae FjXAL tyrosine ammonia lyase (Protein GI 146298870), SEQ ID NO: 1, His-tagged (N-terminal tag SEQ ID NO: 11) (Flavobacterium … (protein)
chain: MNTINEYLSLEEFEAIIFGNQKVTISDVVVNRVNESFNFLKEFSGNKVIYGVNTGFGPMAQYRIKESDQIQLQYNLIRSHSSGTGKPLSPVCAKAAILARLNTLSLGNSGVHPSVINLMSELINKDITPLIFEHGGVGASGDLVQLSHLALVLIGEGEVFYKGERRPTPEVFEIEGLKPIQVEIREGLALINGTSVMTGIGVVNVYHAKKLLDWSLKSSCAINELVQAYDDHFSAELNQTKRHKGQQEIALKMRQNLSDSTLIRKREDHLYSGENTEEIFKEKVQEYYSLRCVPQILGPVLETINNVASILEDEFNSANDNPIIDVKNQHVYHGGNFHGDYISLEMDKLKIVITKLTMLAERQLNYLLNSKINELLPPFVNLGTLGFNFGMQGVQFTATSTTAESQMLSNPMYVHSIPNNNDNQDIVSMGTNSAVITSKVIENAFEVLAIEMITIVQAIDYLGQKDKISSVSKKWYDEIRNIIPTFKEDQVMYPFVQKVKDHLINN
increase in specific production of pHCA over RmXALI, the second-best enzyme ([1]; CDM, 1.7 mM tyrosine): five-fold increase
Specific production of pHCA ([1]; CDM, 1.7 mM tyrosine, initial pH 6.5): 15 μM OD600^−1
specific productivity of pHCA ([1]; tyrosine increased from 1.7 mM to 3.7 mM and/or pH increased from 6.5 to 7.0): 24 μMD600^−1
Km [2]: 6.6 mM
kcat [2]: 0.00817 s⁻¹
kcat/Km [2]: 1.23 M⁻¹ s⁻¹
Km [3]: 0.0057 mM

From US11306331B2, “Processes for the production of hydroxycinnamic acids using polypeptides having tyrosine ammonia lyase activity” (CysBio ApS, priority 2014, dated 2022)
